Laboratory results taken from US20220016205A1, “METHODS OF OVERCOMING RESISTANCE TO IMMUNE CHECKPOINT INHIBITORS” (Board of Regents, The University of Texas System, priority 2018, published 2022).

How the values were obtained:
RAW 264.7 cells = test: qPCR in RAW 264.7 cells co-cultured with 344SQR cells (transwell) with follistatin or K02288; format: cell-based, murine; settings: 344SQR co-culture plus follistatin versus 344SQR co-culture only, 24 or 48 hours (FIG. 3I)
Source text: Quantitative polymerase chain reaction (qPCR). Total RNA was isolated from cells and tumors with Triazol (Life Technologies) according to the manufacturer's protocol. For studies of BMP7, p38α, IL-1α, IL-1β, TNF-α, RANTES, IL-2, and IFN-γ expression, mRNA was retrotranscribed with the iScript™ gDNA Clear cDNA Synthesis Kit (BioRad) and analyzed by qPCR using SYBR Green (Life Technologies) with specific primers according to the manufacturer's protocol. The comparative Ct method was used to calculate the relative abundance of mRNAs compared with ACTB (beta-actin) expression for cancer cells or CD45 expression for immune cells.
Co-culture experiments and treatments. Viable cells were counted with a hemocytometer (0.4% Trypan blue solution) and diluted to 40,000 cells per well in 24-wells plates. Cells from 344SQP, 344SQR, 344SQ ctrl, or 344SQ-shBMP7 tumors were seeded at the top inserts (24-mm Transwell with 0.4-μm pore polycarbonate membrane insert, Sigma-Aldrich), and RAW 264.7 or CD4^+ T cells were seeded at the bottom of the transwell system. […] RNA was then isolated from RAW 264.7 or CD4^+ T cells and analyzed for p38α, IL-1α, IL-1β, TNF-α, RANTES, IL-2 and IFN-γ expression with qPCR. […]

CD4^+ T cells = test: Western blotting of p38a and SMAD1/5/9 phosphorylation in CD4+ T cells treated with BMP7 or BMP7 plus follistatin; format: cell-based, mouse; settings: BMP7 plus follistatin versus BMP7 alone, 1 hour (FIG. 4A)
Description: Protein extraction and Western blot analysis. Total protein was extracted by using NP40 lysis buffer (0.5% NP40, 250 mmol/1 NaCl, 50 mmol/1 HEPES, 5 mmol/1 ethylenediaminetetraacetic acid, and 0.5 mmol/1 egtazic acid) supplemented with protease inhibitors cocktails (Sigma-Aldrich). Lysates were centrifuged at 10,000×g for 10 minutes, and the supernatant was collected for experiments. Protein lysates (40 μg) were resolved on denaturing gels with 4-20% sodium dodecyl sulfate-polyacrylamide and transferred to nitrocellulose membranes (Bio-Rad Laboratories, Hercules, Calif.). Membranes were probed with primary antibodies directed against BMP7 (Abcam, Catalog #ab56023), Phospho-Smad1 (Ser463/465)/Smad5 (Ser463/465)/Smad9 (Ser465/467) (Cell Signaling Technologies, Catalog #13820), p38 MAPK (Cell Signaling Technologies, Catalog #8690), Vinculin (Cell Signaling Technologies, Catalog #13901), β-Actin (Cell Signaling Technologies, Catalog #3700), and a secondary antibody conjugated with horseradish peroxidase (Amersham GE Healthcare). […]
Co-culture experiments and treatments. Viable cells were counted with a hemocytometer (0.4% Trypan blue solution) and diluted to 40,000 cells per well in 24-wells plates. […] RNA was then isolated from RAW 264.7 or CD4^+ T cells and analyzed for p38α, IL-1α, IL-1β, TNF-α, RANTES, IL-2 and IFN-γ expression with qPCR.

344SQR tumors = test: Tumor growth and survival of mice with anti-PD1-resistant 344SQR tumors treated with follistatin, anti-PD1 or both; format: in vivo, 129Sv/Ev mice; settings: follistatin 0.1 mg/kg i.p. (with or without anti-PD1 10 mg/kg), 2 weeks
Description: In vivo studies. All mouse studies were approved by the Institutional Animal Care and Use Committee (IACUC) of The University of Texas MD Anderson Cancer Center before their initiation; animal care was provided according to IACUC standards, and all mice had been bred and were maintained in our own specific pathogen-free mouse colony. For RRBS, RPPA and TILs studies, primary tumors were established by subcutaneous injection of 344SQP or 344SQR cells (0.5×10^6 in 100 μL of sterile phosphate buffered saline [PBS]) into the leg of syngeneic 129Sv/Ev mice (female, 12-16 weeks old). Mice were then given intraperitoneal injections of anti-PD1 or control IgG antibodies (10 mg/kg) (Bio X cell), starting on day 4 after tumor cell inoculation and continuing twice per week for a total of 4 doses. At 24 hours after the last anti-PD1 treatment, tumor tissues were collected for DNA (2 mice/group) and protein isolation (2 or 3 mice/group). For TILs isolation, tumor tissues (3 mice/group) were collected a week after the last treatment with anti-PD1. […] Tumors were measured with calipers three times per week and recorded as tumor volume (in mm^3)=width^2×length/2. […] Mouse survival rates were analyzed by using the Kaplan-Meier method and compared with log-rank tests.

B1: follistatin: BMP7 antagonist protein, natural inhibitor of BMP7 (R&D Systems, Catalog #769-FS-025) (protein, UniProt P19883 30-344, looked up)
Follistatin: GNCWLRQAKNGRCQVLYKTELSKEECCSTGRLSTSWTEEDVNDNTLFKWMIFNGGAPNCIPCKETCENVDCGPGKKCRMNKKNKPRCVCAPDCSNITWKGPVCGLDGKTYRNECALLKARCKEQPELEVQYQGRCKKTCRDVFCPGSSTCVVDQTNNAYCVTCNRICPEPASSEQYLCGNDGVTYSSACHLRKATCLLGRSIGLAYEGKCIKAKSCEDIQCTGGKKCLWDFKVGRGRCSLCDELCPDSKSDEPVCASDNATYASECAMKEAACSSGVLLEVKHSGSCNSISEDTEEEEEDEDQDYSFPISSILEW
expression of p38a and p38α-regulated cytokines and chemokines (RAW 264.7 cells): higher expression | SMAD1/5/9 activation (CD4^+ T cells): lower | p38a expression (CD4^+ T cells): higher | tumor growth (344SQR tumors; compared with anti-PD1 therapy only (FIG. 5C)): decreased tumor growth | survival (344SQR tumors; compared with anti-PD1 therapy only, Kaplan-Meier (FIG. 5C)): extended survival
